Data taken from IntAct's records for PubMed 20126259.

B1: Serine/threonine-protein kinase RAD53 (Saccharomyces cerevisiae), P22216 (parent)
chain: MENITQPTQQSTQATQRFLIEKFSQEQIGENIVCRVICTTGQIPIRDLSADISQVLKEKRSIKKVWTFGRNPACDYHLGNISRLSNKHFQILLGEDGNLLLNDISTNGTWLNGQKVEKNSNQLLSQGDEITVGVGVESDILSLVIFINDKFKQCLEQNKVDRIRSNLKNTSKIASPGLTSSTASSMVANKTGIFKDFSIIDEVVGQGAFATVKKAIERTTGKTFAVKIISKRKVIGNMDGVTRELEVLQKLNHPRIVRLKGFYEDTESYYMVMEFVSGGDLMDFVAAHGAVGEDAGREISRQILTAIKYIHSMGISHRDLKPDNILIEQDDPVLVKITDFGLAKVQGNGSFMKTFCGTLAYVAPEVIRGKDTSVSPDEYEERNEYSSLVDMWSMGCLVYVILTGHLPFSGSTQDQLYKQIGRGSYHEGPLKDFRISEEARDFIDSLLQVDPNNRSTAAKALNHPWIKMSPLGSQSYGDFSQISLSQSLSQQKLLENMDDAQYEFVKAQRKLQMEQQLQEQDQEDQDGKIQGFKIPAHAPIRYTQPKSIEAETREQKLLHSNNTENVKSSKKKGNGRFLTLKPLPDSIIQESLEIQQGVNPFFIGRSEDCNCKIEDNRLSRVHCFIFKKRHAVGKSMYESPAQGLDDIWYCHTGTNVSYLNNNRMIQGTKFLLQDGDEIKIIWDKNNKFVIGFKVEINDTTGLFNEGLGMLQEQRVVLKQTAEEKDLVKKLTQMMAAQRANQPSASSSSMSAKKPPVSDTNNNGNNSVLNDLVESPINANTGNILKRIHSVSLSQSQIDPSKKVKRAKLDQTSKGPENLQFS
partner: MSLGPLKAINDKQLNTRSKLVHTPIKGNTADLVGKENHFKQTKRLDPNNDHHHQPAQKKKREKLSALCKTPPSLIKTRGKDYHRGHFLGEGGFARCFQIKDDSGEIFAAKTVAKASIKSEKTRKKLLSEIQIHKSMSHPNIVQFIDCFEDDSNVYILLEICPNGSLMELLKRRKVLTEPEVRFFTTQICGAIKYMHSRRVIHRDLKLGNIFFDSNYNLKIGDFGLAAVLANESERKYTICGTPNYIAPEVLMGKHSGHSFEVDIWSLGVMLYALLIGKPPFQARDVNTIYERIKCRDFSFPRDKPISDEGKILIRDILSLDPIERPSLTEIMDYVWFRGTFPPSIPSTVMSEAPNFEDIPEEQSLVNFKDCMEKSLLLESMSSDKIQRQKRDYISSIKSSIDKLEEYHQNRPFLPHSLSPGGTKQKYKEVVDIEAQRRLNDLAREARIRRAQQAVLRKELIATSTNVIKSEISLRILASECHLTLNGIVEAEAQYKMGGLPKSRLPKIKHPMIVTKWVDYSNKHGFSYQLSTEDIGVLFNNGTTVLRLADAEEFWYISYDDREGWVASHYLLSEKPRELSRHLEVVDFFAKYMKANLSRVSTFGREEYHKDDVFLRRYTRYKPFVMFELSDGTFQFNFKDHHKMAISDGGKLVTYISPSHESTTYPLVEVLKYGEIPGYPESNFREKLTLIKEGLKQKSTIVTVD

Variants of: B1
Conditions: with cdc5_yeast CDC5, P32562
With R70A;R605A the “effect of a mutation on the interaction” value was “disrupting interaction”.
